Reference: the supplement of paper PMC9170038

Test system: MS2 coat protein
Assay: apparent KD of MS2 coat protein; designed switch direction (-1 OFF switch, 1 ON switch): -1; higher = weaker reporter binding
Method in brief: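 Designed RNA switches were transcribed on Illumina chips by stalled E. coli RNA polymerase and titrated with SNAP-549-labelled MS2 coat protein from 0.7 or 1.5 nM, doubling to 3 µM. Step length ran from 0.8–1.5 h at the lowest concentration to 10–20 min at the highest. The apparent KD is the median over clusters for each design, from curve-fitted normalised cluster fluorescence.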

[1] = Eterna round: R95, input ligand: microRNA oligo, concentration not stated
[2] = Eterna round: R95, input ligand: FMN 200 uM
[3] = Eterna round: R95, input ligand: none
[4] = input ligand: microRNA oligo, concentration not stated

Sequence | apparent KD of MS2 coat protein [1] [nM] | apparent KD of MS2 coat protein (input ligand: FMN 200 uM) [nM] | apparent KD of MS2 coat protein (input ligand: none) [nM] | further results
GUUAGUUAAGGAUAUACUGGGAGCUGCGGCGUCUCGCCGCAACAUGAGGAUCACCCAUGUAGAAGGUGGCCAUU [JL ViennaUCT Enbibi mod 4] (puzzle: Exclusion 2) | 640 | – | – | –
CAUGAUCUUCGGAUCAUGUACAUGAGGAUCACCCAUGUUACGAGCUGAUUUUCAUACAAGCUUUUUGCUCGUCUUAU [Sensor v3 - Turn-off variant 1 - 30] (puzzle: Sensor v3, turn-off variant 1) | 317 | – | – | apparent KD of MS2 coat protein [2]: 41.5 nM; apparent KD of MS2 coat protein [3]: 43 nM
UUUUUUUAUGAAGGAUAUACUUAACAUGAGGAUCACCCAUGUGGUGUUGUGAGUGAGUGAGUUUAGUAGAAGGUCAAUUAUUUU [JMF's solution 23] (Eterna round: R96, puzzle: Exclusion NG 2) | – | 412 | 334 | apparent KD of MS2 coat protein [4]: 379 nM
CUCUUGUCAGGAUAUCUAAGCUGCCUCCCAGUAGCCGAAUUAGAGAAGGGACAUGAGGAUCACCCAUGUAAACG [Enaeren] (puzzle: Exclusion 4) | 106 | – | – | –
ACCCAACAUGAGGAUCACCCAUGUCAGGAUAUCCUCGGGAAACCAAAAGAGGAGCCGAGGAGAAGGGACAGAGG [ChP 04-04-2015 #5] (puzzle: Exclusion 1) | 233 | – | – | apparent KD of MS2 coat protein [2]: 124 nM; apparent KD of MS2 coat protein [3]: 227 nM
CGUAAGCUAGGAUAUGCUUUGGGAAAGCAUUCCUUCGAUAAACUUGAGGAUCACCCAAGUAGAAGGAGCUUACU [salish99_ex2_r4_011] (Eterna round: R97, puzzle: Exclusion 2) | – | 19.5 | 12.5 | –
GGCACACAUGUAGGAUAUCUGCACGUUUAGUGCAGAGAAGGACAUGAGGAUCACCCAUGUAAUUAAGAUCAAUUAUUAAGUGCC [ENG1/3-A2] (Eterna round: R96, puzzle: Exclusion NG 1) | – | 564 | 58.3 | apparent KD of MS2 coat protein [4]: 48.6 nM
CAGUACUGAGGAUAUACAUGAGGAUCACCCAUGUGUUCCAGCUAGGAAACUAGCAAGUGUAGAAGGCAGUACUG [Salish 065 m7] (Eterna round: R97, puzzle: Exclusion 3) | – | 1090 | 410 | –
GCACGGAGUGUAGGAUAUCUGUGCGAUUAGCUCAGAGAAGGGCACAUGAGGAUCACCCAUGUGUAUAAACACAAUAAUCCGUGC [Eli exng1 - 069] (Eterna round: R96, puzzle: Exclusion NG 1) | – | 12.8 | 14.1 | apparent KD of MS2 coat protein [4]: 7.91 nM
CUAUGUUAGCAGGAUAUGCCAUUAUUCCUUUUCGCAGAAGGGCUUACAUGAGGAUCACCCAUGUUACAUUUCUU [JR_E6_Sub085] (puzzle: Exclusion 6) | 13.3 | – | – | –
UUCAUGUGAGGAUAUGUGUACUGCUUUCUGUUUAGAUGUACACAGAAGGCACAUGAGGAUCACCCAUGUAGUAC [Ex4 - 3 - 31] (puzzle: Exclusion 4) | 33.8 | – | – | –
AGCUAGUCAGGAUAUUCUAAUAAUUACAUGAGGAUCACCCAUGUGAAGAGACAAGGGUGUGAAGAAGGGACUAGCG [Omei Ex5 A1] (Eterna round: R97, puzzle: Exclusion 5) | – | 188 | 600 | –
UGAUCUAGCGGAGGAUAUACAUGAGGAUCACCCAUGUAUAGGCCAUCUGGUGACAGGUGGAACAUGUAGAAGGCCGCUAGAUCU [JL ENG2 3.81] (Eterna round: R96, puzzle: Exclusion NG 2) | – | 35.9 | 13.9 | apparent KD of MS2 coat protein [4]: 9.54 nM
GGGAAACAUGAGGAUCACCCAUGUAAGGAUAUGCAAAAGGAUAUAGAAGGAAAAAAAAGCAGAAGGUACAAAGG [salish99-ex1_r3_100] (puzzle: Exclusion 1) | 59.8 | – | – | apparent KD of MS2 coat protein [2]: 68.8 nM; apparent KD of MS2 coat protein [3]: 57.3 nM
CCGGAAAUGGAGGAUAUCGUAUCGGAUACGAUACGAGAAGGCUAUACAUGAGGAUCACCCAUGUGUCCUACCGG [Fiskers Ex 6 - 5] (puzzle: Exclusion 6) | 12.6 | – | – | –
CCUCCACAUGAGGAUCACCCAUGUCAGGAUAUCGUGUGCGCGUUUUCGGUCUUUCGCGCGAGAAGGGACGACUG (puzzle: Exclusion 1) | 24.7 | – | – | –
CAGUACUGAGGAUAUACAUGAGGAUCACCCAUGUGUCUUCUAUUAGGAAACUAGUUAUGUAGAAGGCAGUACUG [Omei Ex3 Mod of Eli 4.27 v8] (Eterna round: R97, puzzle: Exclusion 3) | – | 221 | 16.9 | –
AGCAGACGAGGAUAUGAUCAAUAAUACAUGAGGAUCACCCAUGUAAUACUGAUCCAUGGAUCAGAAGGCGUCUGCU [E5/5-A1] (Eterna round: R97, puzzle: Exclusion 5) | – | 23.5 | 16.4 | –

Sequence | apparent KD of MS2 coat protein [1] [nM] | apparent KD of MS2 coat protein (input ligand: FMN 200 uM) [nM] | apparent KD of MS2 coat protein (input ligand: none) [nM] | further results
CUAAUAUAUCAGGAUAUGAUUAUAUGUGUUAGAUCAGAAGGGAUAACAUGAGGAUCACCCAUGUUGUGGAGUGA [JR_Ex6_Sub035] (Eterna round: R97, puzzle: Exclusion 6) | – | 67.3 | 64.2 | –
CCGCAUAAGCAGGAUAUCGUAUCGGAUACGAUACGAGAAGGGUUUACAUGAGGAUCACCCAUGUUCCUUAGCGG [Fiskers Ex 6 - 31] (puzzle: Exclusion 6) | 26.2 | – | – | –
CAGUACUGAGGAUAUACAUGAGGAUCACCCAUGUGCCUAAGCUAGGAUACUAGCAUUAGUAGAAGGCAGUACUG [Fiskers Ex 3 828 mod 15] (puzzle: Exclusion 3) | 13.6 | – | – | –
GUUUCGUGAGGAUAUGUGGCUUCGAUCGUGCGAAGAAGGCUACAGAAGGCACAUGAGGAUCACCCAUGUUCGUC [salish99_ex4_r4_227] (Eterna round: R97, puzzle: Exclusion 4) | – | 152 | 42.1 | –
GGUGCGUAUGUGAGGAUAUGCUGGUCCUUGGAUCAGCAGAAGGCACAUGAGGAUCACCCAUGUGGUGUCGUGCC [salish99_Bmod_Ex4_019] (puzzle: Brourd's mod of Exclusion 4) | 168 | – | – | –
UAAGUUCAGUAGGAUAUUCAGCAGCUGCUGCUAGGAGAAGGGCUGACAUGAGGAUCACCCAUGUGAGUGUCCGU [Eternabot (L2) Solution 55] (Eterna round: R97, puzzle: Exclusion 6) | – | 92.2 | 32.1 | –
AAGUACCGUCACGAUAGUGAUGGUACAACAAGUAGUGAAACAUGAGGAUCACCCAUGUCCUCAAUUGCUCGUCUUAU [Sensor 3 - 81] (puzzle: Sensor v3, turn-off variant 2) | 264 | – | – | apparent KD of MS2 coat protein [2]: 776 nM; apparent KD of MS2 coat protein [3]: 1020 nM
GGUAGAGUGGUAGGAUAUCCGUCUGUUUCAGUCGGAGAAGGACCACAGUCACUGGGUCCUAAUAUCAUGGAGACCUGAUCUACC [pwkr exNG1 F6.12] (Eterna round: R96, puzzle: Exclusion NG 1) | – | 2200 | 284 | apparent KD of MS2 coat protein [4]: 316 nM
UGAGUGCUGCGAGGAUAUACAUGAGGAUCACCCAUGUUUAGGUGUGAGGCUUUGCCUCACACCAUGUAGAAGGCGCAGUACUCU [JL ENG2 1.07] (Eterna round: R96, puzzle: Exclusion NG 2) | – | 16.8 | 12.8 | apparent KD of MS2 coat protein [4]: 8.96 nM
AGUAACUAUCACGAAAGUGAUAGUUACAACAAGUGAUAAACAUGAGGAUCACCCAUGUCCUCAUUUGUUCGUCUUAU [Sensor 3 - 14] (puzzle: Sensor v3, turn-off variant 2) | 373 | – | – | apparent KD of MS2 coat protein [2]: 240 nM; apparent KD of MS2 coat protein [3]: 225 nM
GAUACACAUGAGGAUCACCCAUGUGAGGAUAUGGAGGAGUUGCGAGUAAGCGAUGGAUCCAGAAGGCGCGUGAG [JR_Ex1_Sub082] (Eterna round: R97, puzzle: Exclusion 1) | – | 73.2 | 64.2 | –
GUAAUUAUAUAGGAUAUCGAAUUUAUUAUUUAACGAGAAGGAUGAACAUGAGGAUCACCCAUGUGGUAUCAUGG [JL-ex6-3.04] (puzzle: Exclusion 6) | 139 | – | – | apparent KD of MS2 coat protein [2]: 145 nM; apparent KD of MS2 coat protein [3]: 165 nM
GAUCAUGCAGGAUAUACAUUAACCAUGAAAACAUGGUUGUCACAUGAGGAUCACCCAUGUAGAAGGGCAUGAUC [Omei Ex2 A6] (Eterna round: R97, puzzle: Exclusion 2) | – | 37.2 | 23.5 | –
UAAUAAAGUGUGAGGAUAUGCUGGUCCUUGGAUCAGCAGAAGGCACAUGAGGAUCACCCAUGUAAUAUAUAUAU [Mat - Exclusion 4 - JL Mod - D54] (puzzle: Brourd's mod of Exclusion 4) | 62.4 | – | – | –
AAAACCAGAGGAUAUGCGCAUAGAUAAGACUUUGUUUCUUAACAUGAGGAUCACCCAUGUAGAAGGCUGUAAAA [Ex2 #71] (Eterna round: R97, puzzle: Exclusion 2) | – | 20.6 | 22 | –
CUUUUGUGAGGAUAUCAGUUGUAAAUAAAUAAAAUUACUACUGAGAAGGCACAUGAGGAUCACCCAUGUUCCUC [salish99_ex3_r3_073] (puzzle: Exclusion 4) | 37.8 | – | – | –
ACUUAUAGAGGAUAUACAGUUUAUUACAUGAGGAUCACCCAUGUUCUUCAAUGUAUAUAAGUAGAAGGCUAAGGAA [EX-5 Malc#5] (puzzle: Exclusion 5) | 25.2 | – | – | apparent KD of MS2 coat protein [2]: 132 nM; apparent KD of MS2 coat protein [3]: 30 nM
CUUUUGUGAGGAUAUUAGUAGUAAAUAAAUAAAUUUACUACUGAGAAGGCACAUGAGGAUCACCCAUGUUCCUC [salish99_ex4_r3_060] (puzzle: Exclusion 4) | 33.7 | – | – | –
